Series [1] deals with T1, COH2-DBD (Metarhizium robertsii, UniProt E9F6D9 1-100). Put plainly: EMSA; LightShift Chemiluminescent EMSA Kit; competitor up to 300-fold excess; buffer, salt, pH and temperature not stated. The following applies: protein: recombinant; tags: His (pET28a); chain copies: 2; label: biotin on one strand (Bio-probe); unlabeled as Cold-probe. In general terms: Mobility shift assays separate free from complexed probe on a gel.

Series [2] concerns the target T1, COH2-DBD. The experiment in a line: competition; unlabeled mutant, 300-fold excess; almost completely abolished shift; LightShift Chemiluminescent EMSA Kit; competitor up to 300-fold excess; buffer, salt, pH and temperature not stated. The following applies: protein: recombinant; tags: His (pET28a); chain copies: 2.

The values below come from publication PMC8366996, “A novel cascade allows Metarhizium robertsii to distinguish cuticle and hemocoel microenvironments during infection of insects”.

B1: COH2-BM wild-type probe (dsDNA)
DNA 1: TTCATCTGCCGAAATGTGGACGCTGACTCGGTATGCATTGCACCATCTC
DNA 2: GAGATGGTGCAATGCATACCGAGTCAGCGTCCACATTTCGGCAGATGAA
As to B1, in the series with COH2-DBD [1], the binding result was “binds”.

B2: 7A (dsDNA)
DNA 1: TTCATCTGCCGAAATGTGGACGCTGACTCAGTATGCATTGCACCATCTC
DNA 2: GAGATGGTGCAATGCATACTGAGTCAGCGTCCACATTTCGGCAGATGAA
B2: the binding result in the series with COH2-DBD [2] is given as “binds”.
